Assay results reported in US7164008B2, “Isolated complexes of endotoxin and MD-2” (priority 2003, dated 2007).

Experiments:
TLR4 = biological target: T1, TLR4 (Homo sapiens, UniProt O00206+Q9Y6Y9); experiment: Cell association of [^3H]-LOS forms with HEK/TLR4 cells (liquid scintillation); format: cell-based; conditions: [^3H]-LOS-MD-2 0.75 ng/ml, HEK/TLR4 overnight
T1 construct: host or cells: HEK293 stably transfected with TLR4 (HEK/TLR4)
Method: FIG. 3 depicts delivery of [^3H]-LOS-MD-2 but not [^3H]-LOSagg or [^3H]-LOS-sCD14 to HEK/TLR4. HEK (□) or HEK/TLR4 (▪) cells were incubated with [^3H]-LOS (0.75 ng/ml) in the form of LOSagg, LOS-sCD14, or LOS-MD-2. After overnight incubation at 37° C., cells were washed and lysed as described in Methods. The amount of [^3H]-LOS associated with the cells was measured by liquid scintillation spectroscopy. Results are from one experiment in duplicate, representative of three similar experiments.
FIG. 4 depicts the effects of added MD-2 on activation of HEK/TLR4 by [^3H]-LOS-MD-2 and delivery of [^3H]-LOS-MD-2 to HEK/TLR4. […] After overnight incubation, extracellular accumulation of IL-8 was measured. […] Column fractions were analyzed for [^14C]-LOS by liquid scintillation spectroscopy. […] The amount of radioactivity associated with the cells was determined by liquid scintillation spectroscopy. No radioactivity was associated with parental cells.
HEK or HEK/TLR4 cells were grown to confluency in 6 well plates, washed twice with warm PBS, and [^3H]-LOS aggregates or [^3H]-LOS-protein complexes+/−indicated supplements were incubated overnight at 37° C., 5% CO2, and 95% humidity in DMEM, 0.1% HSA with the supplements indicated in the legends to FIGS. 3 and 4. […] The amount of radioactivity associated with the cells was determined by liquid scintillation spectroscopy. Total recovery of radioactivity was >90%.

MD-2 = experiment: Formation of [^14C]-LOS-MD-2 complex monitored by gel filtration chromatography; format: binding, human; conditions: 30 min, 37° C., Sephacryl S100
Method: In FIG. 2, a bioactive complex (Mr˜25,000) containing MD-2 and [^14C]-LOS is formed by incubation of [^14C]-LOS-sCD14 with wt, but not C95Y, MD-2. In FIG. 2A, dialyzed control insect cell medium (◯) or medium containing wt (♦) or C95Y ( ? ) MD-2 was incubated for 30 min, 37° C. with (1:1 vol/vol) [^14C]-LOS-sCD14 in HBSS+, 10 mM HEPES and chromatographed on Sephacryl S100. Column fractions were analyzed for [^14C]-LOS. Identical results were obtained in analytical (5 ng [^14C]-LOS/ml+200 μl culture medium) or more preparative runs (reagents concentrated 20×). […] Cell activation was measured by IL-8 accumulation. […]
Purified [^14C]-LOSagg or [^14C]-LOS-sCD14 (3 ng LOS/ml)+/−indicated proteins (30 ng/ml LBP, 250 ng/ml sCD14, 60 μl culture medium) were incubated at 37° C. for 30 min. After this incubation, samples were analyzed by gel filtration chromatography to monitor formation of [^14C]-LOS-MD-2 and by incubation with HEK/TLR4 cells to measure cell activation.
Columns of Sephacryl HR S200 (1.6 cm×30 cm) or S100 (1.0 cm×60 cm) were pre-equilibrated in 10 mM HEPES, HBSS^++/−0.1% HSA. […] Aliquots of the collected fractions were analyzed by liquid scintillation spectroscopy using a Beckman LS liquid scintillation counter to detect [^14C]-LOS. […]

T1 sequence (O00206 24-839, one chain of several): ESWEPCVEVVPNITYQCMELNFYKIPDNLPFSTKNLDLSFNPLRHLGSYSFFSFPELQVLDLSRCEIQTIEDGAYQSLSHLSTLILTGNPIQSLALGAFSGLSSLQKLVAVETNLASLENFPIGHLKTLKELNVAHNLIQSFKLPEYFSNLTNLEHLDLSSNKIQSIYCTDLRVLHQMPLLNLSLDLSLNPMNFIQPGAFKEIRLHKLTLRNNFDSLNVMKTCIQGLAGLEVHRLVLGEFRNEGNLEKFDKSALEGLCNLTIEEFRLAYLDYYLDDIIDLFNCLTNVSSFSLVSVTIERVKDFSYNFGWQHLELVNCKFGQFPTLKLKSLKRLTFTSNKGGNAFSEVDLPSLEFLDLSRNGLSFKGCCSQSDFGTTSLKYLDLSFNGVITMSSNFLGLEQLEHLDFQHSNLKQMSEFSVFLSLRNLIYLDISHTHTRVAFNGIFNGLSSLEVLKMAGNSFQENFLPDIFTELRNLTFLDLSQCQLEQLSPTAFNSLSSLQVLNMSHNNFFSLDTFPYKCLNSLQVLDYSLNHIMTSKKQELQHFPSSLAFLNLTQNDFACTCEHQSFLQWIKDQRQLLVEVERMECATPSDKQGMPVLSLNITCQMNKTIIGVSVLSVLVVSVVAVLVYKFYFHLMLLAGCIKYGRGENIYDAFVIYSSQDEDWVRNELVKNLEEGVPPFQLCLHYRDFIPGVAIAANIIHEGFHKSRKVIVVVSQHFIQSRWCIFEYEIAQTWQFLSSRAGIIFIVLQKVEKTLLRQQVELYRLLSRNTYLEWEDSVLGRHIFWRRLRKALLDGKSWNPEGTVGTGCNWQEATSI

B1: wt MD-2: soluble polyhistidine-tagged recombinant wild-type MD-2 in conditioned insect cell culture medium (protein)
chain: QKQYWVCNSSDASISYTYCDKMQYPISINVNPCIELKRSKGLLHIFYIPRRDLKQLYFNLYITVNTMNLPKRKEVICRGSDDDYSFCRALKGETVNTTISFSFKGIKFSKGKYKCVVEAISGSPEEMLFCLEFVILHQPNSNHHHHHH
TLR4
  effect of excess MD-2 on TLR4-dependent cell association of [^3H]-LOS-MD-2: blocked
MD-2
  reaction with [^14C]-LOS-sCD14 to generate new Mr˜25,000 [^14C]-LOS-containing complex: efficiently generated
